Measured values taken from FireProtDB (doi:10.1074/jbc.271.12.6832).
“And” between values parts separate entries of the source, which are not always exact repeats. Equal entries are not always repeated.

Details: Streptococcus pneumoniae serotype 4 (strain ATCC BAA-334 / TIGR4); pH 6.9; Thermal; DSC; phosphate 20 mM; transition: 4; reversible: no; whole UniProt chain shown

B1: Autolysin wild type, P06653 (protein)
chain: MEINVSKLRTDLPQVGVQPYRQVHAHSTGNPHSTVQNEADYHWRKDPELGFFSHIVGNGCIMQVGPVDNGAWDVGGGWNAETYAAVELIESHSTKEEFMTDYRLYIELLRNLADEAGLPKTLDTGSLAGIKTHEYCTNNQPNNHSDHVDPYPYLAKWGISREQFKHDIENGLTIETGWQKNDTGYWYVHSDGSYPKDKFEKINGTWYYFDSSGYMLADRWRKHTDGNWYWFDNSGEMATGWKKIADKWYYFNEEGAMKTGWVKYKDTWYYLDAKEGAMVSNAFIQSADGTGWYYLKPDGTLADKPEFTVEPDGLITVK
unfolding enthalpy (van 't Hoff): 50 kcal/mol and 71 kcal/mol and 95 kcal/mol
